The values below come from patent US20250230224A1.

The target of experiment [1] is Mosaic botulinum neurotoxin BoNT/CD (Clostridium botulinum). As to the kind of experiment: KinExA flow fluorimetry, solution phase, IgG. A general note: In KinExA the mixture passes briefly over coated beads that capture the unbound partner.
In experiment [2] the target is Mosaic botulinum neurotoxin BoNT/DC (Clostridium botulinum). Kind of experiment: KinExA flow fluorimetry, solution phase, IgG.
In the next experiment the target is BoNT/F2. Kind of experiment: KinExA, IgG.
The target in the next experiment is BoNT/F7. Kind of experiment: KinExA, IgG.
The next experiment addresses BoNT/F6. As to the kind of experiment: KinExA, IgG.
Another experiment concerns the target BoNT/F3. Kind of experiment: KinExA, IgG.
A further experiment addresses BoNT/F4. Kind of experiment: KinExA, IgG.
For the next experiment, the target named is BoNT/F5. As to the kind of experiment: KinExA, IgG.

B1: 4C4.4 IgG (antibody, V domains shown)
VH: QVQLQESGPGLVKPSQTLSLTCTVSGASISNSPYFWNWFRQFPGKGLEWIGYIYWSGSTNYNPSLKSRLAMSVDTSKNQFSLKLTSATAADTAVYYCARDQGGGTVVKENWFDPWGQGTLVTVSS
VL: DIVMTQSPSSLSASVGDRLTMTCQASQDIGKHLNWYQQKAGKPPKLLIYGASNLKTGVPSRFSAGVSWTDFTFTISNVQPEDVATYYCQQSYSTPPTFGQGTKVEIKR
A word on the Kd: it is the equilibrium constant for the complex coming apart. For the molecule B1, the equilibrium dissociation constant (Kd) in experiment [1] was 0.016 nM; in experiment [2], 0.087 nM.

B2: Hu6F11 IgG (antibody, V domains shown)
VH: EVQLVESGGGLVKPGGSLRLSCAASGFTFSNYGMSWVRQAPGKGLEWVASISSGGSYIYYPDSVKGRFTISRDNAKNSLYLQMNSLRAEDTAVYYCARRKGYDSLYWYFDVWGQGTLVTVSS
VL: DVVMTQSPSSLSAFVGDRVTITCRASQGIRSYLAWFQQKPGKAPKLLIYAASTLQSGVPSRFSGSGSGTEFTLTVSGLQPEDFATYYCQQYNSYPLTFGGGTRLEIKR
B2: the Kd was found to be 0.0283 nM in the experiment with BoNT/F2; 0.00334 nM with BoNT/F7; 0.0037 nM with BoNT/F6; 0.00803 nM with BoNT/F3; 0.0137 nM with BoNT/F4; 0.0218 nM with BoNT/F5.

B3: 8DC4.4 IgG (antibody, V domains shown)
VH: QVQLQESGPGLVKPSQTLSLTCTVSGGSISSDNYFWTWIRQSPGKGLEWLGHISYSGRSYTNLSLKRRLTISVDTSKNQFSLNLNSVTAADTAVYYCARERLPPGRGYDMDVWGQGTTVTVSS
VL: DIVMTQSPSSVSASVGDRVTITCRASRDISIYLNWYQQKPGKAPKLLIYAASNLETGVPSRFSGSGSGTDFTLTISSLQPEDVATYYCQQSYNTPLTFGGGTKLEIKR
With B3, the Kd was 0.117 nM in experiment [1] and 0.146 nM in experiment [2].

B4: 6F5.4 IgG (antibody, V domains shown)
VH: EVQLVPSGGNLVQPGGSLRLSCAATGPIDYHWMTWVRQAPGQGLEWVANINLDGTEKFYVDSVKGRFTVSRDNRKSSVFLQMNNLRVDDTAVYYCARLQWGERDGWLSPWGQGTLVTVSS
VL: DIVMTQSPPSLSASVGDRVRLTCRASQSIGRSLNWYQQKPGKAPKLLIYDASALHSGVPSRFSGSGSGTDFTLTISGLQPEDFATYYCQQTNDLPVTFGGGTKLEIKR
For the molecule B4, the Kd with BoNT/F2 was 0.00016 nM; in the experiment with BoNT/F7 it was 0.00374 nM; in the experiment with BoNT/F6 it was 0.0004 nM; with BoNT/F3, 0.00519 nM; with BoNT/F4 it was 0.0258 nM; with BoNT/F5 it was 0.00588 nM.

B5: Hu6F13.4 IgG (antibody, V domains shown)
VH: QVQLVQSGAEVKKPGASVKVSCKASGYSFTSYWMHWVRQAPGQGLEWIGFINPINGGIIYNEKFRFRATLTVDTSISTAYMELSRLRSDDTAVYYCARAGYYGSSRHFDVWGQGTLLTVSS
VL: ETTLTQSPSSLSASVGDRVTITCRASQGIRNYLAWYQQKPGKAPKLLIYDASNLETGVPSRFSGSGSGTDFTFTISSLQPEDFATYYCLQTSSTPWTFGQGTKVDIKR
In the case of B5, the dissociation constant Kd with BoNT/F2 was found to be 0.216 nM; with BoNT/F7, 0.206 nM; with BoNT/F6, 0.172 nM; in the experiment with BoNT/F3, 0.297 nM; with BoNT/F4, 0.405 nM; with BoNT/F5 it was 0.0172 nM.
